Results: publication PMC11697037, “Structural insights into the regulation of monomeric and dimeric apelin receptor” (Nature Communications, 2025)

Key:
[1] = target: the molecule itself; experiment: cryo-EM structure; JN241-9-APJR complex, APJR and JN241-9 co-expressed in Hi5 cells (1:1 virus ratio), co-purified without added ligand; no Gi
[2] = target: T1, human WT APJR (apelin receptor), cryo-EM construct with a deletion of 50 residues from the C-terminus (human, UniProt P35414); experiment: cryo-EM structure; purified APJR (LMNG/CHS) incubated 1 h at 4 °C with 125 µg JN241(-Fc), SEC in 20 mM HEPES pH 7.5, 100 mM NaCl; no Gi; settings: both partners purified
T1 construct: The N-terminal fusion is HA signal peptide, Flag tag, 10x His tag and BRIL, in pFastBac1; No cleavage of the fusion is mentioned; The protein is seen both as a monomer and as a homodimer; also called ProtA; ProtB; source: Trichoplusia ni (Hi5) insect cells, baculovirus; alone or co-expressed with Gi and/or JN241-9; purified (LMNG/CHS, Talon resin, SEC); not shown: His10, N-terminal, kept

[3] = target: T1, human WT APJR (apelin receptor), …; experiment: cryo-EM 2D classification; JN241-APJR complex with the Fc tag removed from the sdAb; data quality insufficient for a high-resolution structure; settings: both partners purified

B1: human WT APJR (apelin receptor), cryo-EM construct with a deletion of 50 residues from the C-terminus (receptor, UniProt P35414 1-330, looked up)
chain: MEEGGDFDNYYGADNQSECEYTDWKSSGALIPAIYMLVFLLGTTGNGLVLWTVFRSSREKRRSADIFIASLAVADLTFVVTLPLWATYTYRDYDWPFGTFFCKLSSYLIFVNMYASVFCLTGLSFDRYLAIVRPVANARLRLRVSGAVATAVLWVLAALLAMPVMVLRTTGDLENTTKVQCYMDYSMVATVSSEWAWEVGLGVSSTTVGFVVPFTIMLTCYFFIAQTIAGHFRKERIEGLRKRRRLLSIIVVLVVTFALCWMPYHLVKTLYMLGSLLHWPCDFDLFLMNIFPYCTCISYVNSCLNPFLYAFFDPRFRQACTSMLCCGQSR
notes: The N-terminal fusion is HA signal peptide, Flag tag, 10x His tag and BRIL, in pFastBac1; No cleavage of the fusion is mentioned; The protein is seen both as a monomer and as a homodimer; also called ProtA; ProtB; source: Trichoplusia ni (Hi5) insect cells, baculovirus; alone or co-expressed with Gi and/or JN241-9; purified (LMNG/CHS, Talon resin, SEC); not shown: His10, N-terminal, kept
**Q.** Does B1 bind [1]?
**A.** binds

B2: JN241-Fc, antagonistic single-domain antibody (sdAb) JN241 with Fc tag (VHH)
VHH: QVQLVESGGGSVQSGGSLTLSCAASGSTYSSHCMGWFRQAPGKEREGVALMTRSRGTSYADSVKGRFTISQDNTKNILYLQMNSLKPEDTAMYYCAAVPRAGIESGAYCKWNMKDSGSWGQGTQVTVSS
notes: the model of the JN241-APJR complex deposited here (PDB 8XQJ) holds this chain; also called antagonistic antibody; sdAb antagonist; source: provided by Structure Therapeutics
**Q.** Does B2 bind [2]?
**A.** binds

B3: JN241 with the Fc tag removed (VHH)
VHH: QVQLVESGGGSVQSGGSLTLSCAASGSTYSSHCMGWFRQAPGKEREGVALMTRSRGTSYADSVKGRFTISQDNTKNILYLQMNSLKPEDTAMYYCAAVPRAGIESGAYCKWNMKDSGSWGQGTQVTVSS
notes: as the VHH of m4; PDB 8XQJ holds the JN241 chain; also called sdAb; source: Fc tag removed
**Q.** Does B3 bind [3]?
**A.** binds
